# Experimental data from FireProtDB (doi:10.1007/s00249-013-0926-9).
# B1: Photosystem II lipoprotein Psb27, P74367 (parent)
# chain: MSFLKNQLSRLLALILVVAIGLTACDSGTGLTGNYSQDTLTVIATLREAIDLPQDAPNRQEVQDTARGQINDYISRYRRKGDAGGLKSFTTMQTALNSLAGYYTSYGARPIPEKLKKRLQLEFTQAERSIERGV
# Variants of: B1
# Settings: Synechocystis sp. (strain ATCC 27184 / PCC 6803 / Kazusa); pH 7; Thermal; CD; Sodium phosphate Tris HCl 20 mM; transition: 2; reversible: Yes; structure 2KMF; whole UniProt chain shown
row,Variant,Tm [°C]
1,C25S,58.2
2,D38A,41.9
3,R78E,57
4,Y102H,56.3
5,P110G I111G P112G,43.3
6,P110G P112G,49.2
7,R118E,56.6
8,E122R,54.4
9,E127R,56.1
10,R132E,60.2
